Results published in PMC4423959, “The Nucleoid Occlusion SlmA Protein Accelerates the Disassembly of the FtsZ Protein Polymers without Affecting Their GTPase Activity” (PLoS ONE, 2015).
Like-named read-outs stand apart in the source and are kept apart here.

B4: E. coli FtsZ (natural protein, UniProt P0A9A6 1-383, looked up)
chain: MFEPMELTNDAVIKVIGVGGGGGNAVEHMVRERIEGVEFFAVNTDAQALRKTAVGQTIQIGSGITKGLGAGANPEVGRNAADEDRDALRAALEGADMVFIAAGMGGGTGTGAAPVVAEVAKDLGILTVAVVTKPFNFEGKKRMAFAEQGITELSKHVDSLITIPNDKLLKVLGRGISLLDAFGAANDVLKGAVQGIAELITRPGLMNVDFADVRTVMSEMGYAMMGSGVASGEDRAEEAAEMAISSPLLEDIDLSGARGVLVNITAGFDLRLDEFETVGNTIRAFASDNATVVIGTSLDPDMNDELRVTVVATGIGMDKRPEITLVTNKQVQQPVMDRYQQHGMAPLTQEQKPVAKVVNDNAPQTAKEPDYLDIPAFLRKQAD
notes: Cell division protein FtsZ of E. coli; The nucleotide state (GDP: oligomers); In AUC and FCS a tracer share of FtsZ labelled on amine groups with Alexa Fluor 488 (FtsZ-Alexa 488) was mixed with unlabelled FtsZ; also called FtsZ-GDP; FtsZ-GTP; source: isolated as described elsewhere [40]

Experiments:
FtsZ (Escherichia coli) [1] = target: FtsZ (Escherichia coli) (UniProt P0A9A6); details: cited from earlier work
FtsZ (Escherichia coli) [2] = target: FtsZ (Escherichia coli) (UniProt P0A9A6); details: cited from earlier work; remark: listed apart in the source
SlmA [3] = target: T1, SlmA (UniProt P0C093 1-198); experiment: fluorescence anisotropy; 300 mM KCl, 2 mM MgCl2; apparent Kd, 4:1 model; dG 18.0 ± 0.2 kcal/mol; 50 mM Tris-HCl, 300 mM KCl, 2 mM MgCl2, pH 7.5, 20 C; 10 nM labeled SBS in SlmA anisotropy titrations; details: protein: recombinant; tags: SUMO tag cleaved off; chain copies: 4; label: fluorescein on T at position 27 from the 5' end of the antisense strand; blunt
T1 sequence: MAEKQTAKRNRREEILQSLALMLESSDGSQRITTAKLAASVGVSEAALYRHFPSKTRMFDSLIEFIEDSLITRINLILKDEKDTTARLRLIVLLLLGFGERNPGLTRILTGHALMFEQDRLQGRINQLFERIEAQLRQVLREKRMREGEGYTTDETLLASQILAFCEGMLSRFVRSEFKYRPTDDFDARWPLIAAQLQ

[4] = target: the molecule itself; experiment: SEC-MALS; Superdex 200 10/300 GL, 0.5 mL/min, 20°C, working buffer (50 mM Tris-HCl, 300 mM KCl, 2 mM MgCl2, pH 7.5); SlmA 10 μM (also 6 μM), no DNA
E. coli FtsZ = target: B4; experiment: fluorescence polarisation; anisotropy titration of FtsZ with 1 mM GTP + regeneration system into SlmA 2 μM with fluorescein-SBScons 0.2 μM (also 1 μM and 10 nM); 20°C, working buffer (50 mM Tris-HCl, 300 mM KCl, 2 mM MgCl2, pH 7.5); 1:1 model, apparent Kd in FtsZ monomer concentration; details: both partners purified
[5] = target: the molecule itself; experiment: AUC; sedimentation velocity, 48,000 rpm, 20°C, working buffer (50 mM Tris-HCl, 300 mM KCl, 2 mM MgCl2, pH 7.5); FtsZ-GDP 30 μM total with 6 μM FtsZ-Alexa 488 as tracer, without or with SlmA 15 μM and SBScons 4 μM
SlmA [6] = target: T1, SlmA; experiment: fluorescence anisotropy; 300 mM KCl, 2 mM MgCl2; apparent Kd, 4:1 model; dG 17.6 ± 0.2 kcal/mol; 50 mM Tris-HCl, 300 mM KCl, 2 mM MgCl2, pH 7.5, 20 C; 10 nM labeled SBS in SlmA anisotropy titrations; details: protein: recombinant; tags: SUMO tag cleaved off; chain copies: 4; label: 5' fluorescein on sense strand (anisotropy); blunt
SlmA [7] = target: T1, SlmA; experiment: fluorescence anisotropy; 300 mM KCl, 2 mM MgCl2; apparent Kd, 4:1 model; dG 20.3 ± 0.2 kcal/mol; 50 mM Tris-HCl, 300 mM KCl, 2 mM MgCl2, pH 7.5, 20 C; 10 nM labeled SBS in SlmA anisotropy titrations; details: protein: recombinant; tags: SUMO tag cleaved off; chain copies: 4; label: 5' fluorescein on sense strand (anisotropy); blunt

Molecule: MinC (from UniProt P18196)
- Kd (FtsZ (Escherichia coli) [1]): 8000 nM

Molecule: SlmA (from UniProt P0C093)
- Kd (FtsZ (Escherichia coli) [2]): 200 nM

B1: SBS17 (dsDNA)
DNA 1: TCAACGTTAGTGACCATTTACTTACTTTTG
DNA 2: CAAAAGTAAGTAAATGGTCACTAACGTTGA
- Kd (SlmA [3]): 190 ± 30 nM

B2: SlmA (free, without DNA) (natural protein, E. coli, UniProt P0C093 1-198, looked up)
chain: MAEKQTAKRNRREEILQSLALMLESSDGSQRITTAKLAASVGVSEAALYRHFPSKTRMFDSLIEFIEDSLITRINLILKDEKDTTARLRLIVLLLLGFGERNPGLTRILTGHALMFEQDRLQGRINQLFERIEAQLRQVLREKRMREGEGYTTDETLLASQILAFCEGMLSRFVRSEFKYRPTDDFDARWPLIAAQLQ
notes: Nucleoid occlusion factor SlmA of E. coli; Dimer by SEC-MALLS in the absence of DNA; also called free SlmA; source: purified and cleaved from SUMO protein essentially as described in [31]
- stoichiometry N [4]: 2

B3: SlmA·SBS complex (four SlmA monomers, as two dimers, bound to one SBScons DNA) (complex, E. coli, UniProt P0C093 1-198, looked up)
chain: MAEKQTAKRNRREEILQSLALMLESSDGSQRITTAKLAASVGVSEAALYRHFPSKTRMFDSLIEFIEDSLITRINLILKDEKDTTARLRLIVLLLLGFGERNPGLTRILTGHALMFEQDRLQGRINQLFERIEAQLRQVLREKRMREGEGYTTDETLLASQILAFCEGMLSRFVRSEFKYRPTDDFDARWPLIAAQLQ
notes: Nucleoid occlusion factor SlmA of E. coli; same chain as m2; 4:1 SlmA:SBS by sedimentation velocity and SEC-MALLS; also called SlmA SBScons; SlmA:SBScons
- Kd (E. coli FtsZ): 12000 nM

Molecule: B4
- binding result [5]: binds

B5: SBS12 (dsDNA)
DNA 1: CGCGAAGTGAACGCTAACTCACTG
DNA 2: CAGTGAGTTAGCGTTCACTTCGCG
- Kd (SlmA [6]): 270 ± 50 nM

B6: SBScons (dsDNA)
DNA 1: AAGTAAGTGAGCGCTCACTTACGT
DNA 2: ACGTAAGTGAGCGCTCACTTACTT
- Kd (SlmA [7]): 25 ± 4 nM
